Measurements: patent US20020058275A1, “Compositions, kits, and methods for effecting adenine nucleotide modulation of DNA mismatch recognition proteins” (Thomas Jefferson University, priority 1997, published 2002)

Experiments:
GST-hMSH6 = molecular target: T1, GST-hMSH6 (Homo sapiens, UniProt P52701); experiment: GST fusion protein interaction assay; type: binding; conditions: 35S-labeled IVTT protein as prey
T1 construct: GST fusion proteins which comprised either full length hMSH3 or full length hMSH6; made in house; host or cells: E. coli (XL-blue), pGEX
Protocol: (§1) An overnight culture of E. coli XL-blue cells which harbored pGEX-hMSH(X) (i.e. ‘X’ being 2, 3, or 6) was grown in LB with […] ampicillin. 50 milliliter of Luria broth containing ampicillin was inoculated with 1 milliliter of the overnight culture, and the culture was incubated until the optical density, as assessed at 600 nanometers, was about 0.5. IPTG was added to a final concentration of 0.1 millimolar, and the culture container placed in a shaker at 30° C. for 2 hours to generate induced cells. […] GST-fusion protein levels were quantified as described herein. […] GST-fusion protein expression levels were quantitated by Coomassie Brilliant Blue staining of protein separated by SDS-PAGE gels, using BSA as a standard.
(§2) In vitro transcription and translation (IVTT) reactions involving ^35S-Methionine were performed with pET-hMSH(Y) (i.e. where ‘Y’ was 2, 3, or 6) using purified DNA according to the manufacturers recommendations. […] This value was calculated using the specific activity of ^35 S-Methionine, correcting for the number of methionine residues in each IVTT construct and using SDS-PAGE and a Molecular Dynamics Phosphorlmager device equipped with ImageQuant software (Sunnyvale, Calif.). […]

GST-hMSH2 = molecular target: T2, GST-hMSH2 (Homo sapiens, UniProt P43246); experiment: GST fusion protein interaction assay; type: binding; conditions: 35S-labeled IVTT protein as prey
T2 construct: made in house; host or cells: E. coli (XL-blue), pGEX
Protocol: as §1, §2

T2 sequence (P43246 whole entry, the tested form may be a part): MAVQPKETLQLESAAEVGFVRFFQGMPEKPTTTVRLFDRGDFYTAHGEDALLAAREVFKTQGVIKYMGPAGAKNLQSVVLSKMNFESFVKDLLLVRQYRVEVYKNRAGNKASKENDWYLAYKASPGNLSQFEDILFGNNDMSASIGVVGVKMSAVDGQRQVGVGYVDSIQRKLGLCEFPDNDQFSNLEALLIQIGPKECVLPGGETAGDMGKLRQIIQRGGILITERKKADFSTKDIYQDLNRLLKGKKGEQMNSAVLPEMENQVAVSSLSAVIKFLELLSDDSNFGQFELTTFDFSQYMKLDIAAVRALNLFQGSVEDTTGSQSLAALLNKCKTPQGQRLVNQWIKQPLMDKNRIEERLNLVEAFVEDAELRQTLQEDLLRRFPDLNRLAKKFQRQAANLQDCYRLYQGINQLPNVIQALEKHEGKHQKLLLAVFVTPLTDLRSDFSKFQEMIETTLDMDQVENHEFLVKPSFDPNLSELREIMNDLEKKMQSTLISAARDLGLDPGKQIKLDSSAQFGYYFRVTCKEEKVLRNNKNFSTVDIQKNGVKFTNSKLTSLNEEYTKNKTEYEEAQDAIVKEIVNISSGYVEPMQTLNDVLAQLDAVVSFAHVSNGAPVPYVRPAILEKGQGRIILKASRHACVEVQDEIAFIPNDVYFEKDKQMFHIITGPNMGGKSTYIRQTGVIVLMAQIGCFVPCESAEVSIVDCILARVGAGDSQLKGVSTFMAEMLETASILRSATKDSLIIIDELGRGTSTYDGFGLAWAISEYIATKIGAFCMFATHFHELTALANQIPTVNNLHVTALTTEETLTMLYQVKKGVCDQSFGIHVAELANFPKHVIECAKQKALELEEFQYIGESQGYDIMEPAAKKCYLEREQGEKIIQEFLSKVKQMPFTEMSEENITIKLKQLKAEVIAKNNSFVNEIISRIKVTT
T1 sequence (P52701 whole entry, the tested form may be a part): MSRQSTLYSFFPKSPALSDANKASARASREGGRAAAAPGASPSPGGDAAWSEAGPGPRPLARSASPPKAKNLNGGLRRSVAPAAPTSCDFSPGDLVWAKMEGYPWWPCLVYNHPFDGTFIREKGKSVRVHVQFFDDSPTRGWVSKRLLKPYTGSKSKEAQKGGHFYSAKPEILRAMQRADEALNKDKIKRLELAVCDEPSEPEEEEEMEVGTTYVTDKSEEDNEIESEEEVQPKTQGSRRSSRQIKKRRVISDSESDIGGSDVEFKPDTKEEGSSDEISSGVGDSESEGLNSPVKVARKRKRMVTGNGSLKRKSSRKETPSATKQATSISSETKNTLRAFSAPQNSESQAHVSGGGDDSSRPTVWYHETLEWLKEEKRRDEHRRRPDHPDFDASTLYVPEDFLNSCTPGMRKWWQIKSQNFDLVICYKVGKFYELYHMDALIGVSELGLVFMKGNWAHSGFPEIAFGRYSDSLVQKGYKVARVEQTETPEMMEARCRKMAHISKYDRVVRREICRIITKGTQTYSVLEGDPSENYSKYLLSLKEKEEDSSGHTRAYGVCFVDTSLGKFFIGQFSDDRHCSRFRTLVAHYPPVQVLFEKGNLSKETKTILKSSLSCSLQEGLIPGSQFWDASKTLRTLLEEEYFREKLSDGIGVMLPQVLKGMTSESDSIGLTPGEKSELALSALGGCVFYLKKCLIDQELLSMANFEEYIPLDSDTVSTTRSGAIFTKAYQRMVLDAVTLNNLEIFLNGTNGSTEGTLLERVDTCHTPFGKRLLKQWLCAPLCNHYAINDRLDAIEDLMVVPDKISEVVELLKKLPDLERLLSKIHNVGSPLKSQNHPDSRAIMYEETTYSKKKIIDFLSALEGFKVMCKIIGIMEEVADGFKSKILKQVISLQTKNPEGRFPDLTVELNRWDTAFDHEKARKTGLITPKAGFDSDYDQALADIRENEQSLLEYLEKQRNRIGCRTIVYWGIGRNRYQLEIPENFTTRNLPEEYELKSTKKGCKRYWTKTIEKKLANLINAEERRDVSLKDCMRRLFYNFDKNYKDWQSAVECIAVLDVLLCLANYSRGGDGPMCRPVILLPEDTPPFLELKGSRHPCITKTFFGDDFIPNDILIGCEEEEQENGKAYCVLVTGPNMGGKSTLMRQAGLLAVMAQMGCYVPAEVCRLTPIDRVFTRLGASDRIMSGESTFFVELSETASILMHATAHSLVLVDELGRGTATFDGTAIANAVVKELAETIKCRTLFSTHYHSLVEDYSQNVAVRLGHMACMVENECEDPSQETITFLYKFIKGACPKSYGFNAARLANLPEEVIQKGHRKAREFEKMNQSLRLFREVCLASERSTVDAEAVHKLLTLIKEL

interaction with GST-hMSH6 fusion protein (GST-hMSH6): did not interact
interaction with GST-hMSH2 fusion protein (GST-hMSH2): did not interact
B1: hMSH5: human MutS homolog, putative 834-amino-acid protein encoded by clone b29 (SEQ ID NO: 29) (protein)
chain: MASLGANPRRTPQGPRPGAASSGFPSPAPVPGPREAEEEEVEEEEELAEIHLCVLWNSGYLGIAYYDTSDSTIHFMPDAPDHESLKLLQRVLDEINPQSVVTSAKQDENMTRFLGKLASQEHREPKRPEIIFLPSVDFGLEISKQRLLSGNYSFIPDAMTATEKILFLSSIIPFDCLLTVRALGGLLKFLGRRRIGVELEDYNVSVPILGFKKFMLTHLVNIDQDTYSVLQIFKSESHPSVYKVASGLKEGLSLFGILNRCHCKWGEKLLRLWFTRPTHDLGELSSRLDVIQFFLLPQNLDMAQMLHRLLGHIKNVPLILKRMKLSHTKVSDWQVLYKTVYSALGLRDACRSLPQSIQLFRDIAQEFSDDLHHIASLIGKVVDFEGSLAENRFTVLPNIDPEIDEKKRRLMGLPSFLTEVARKELENLDSRIPSCSVIYIPLIGFLLSIPRLPSMVEASDFEINGLDFMFLSEEKLHYRSARTKELDALLGDLHCEIRDQETLLMYQLQCQVLARAAVLTRVLDLASRLDVLLALASAARDYGYSRPRYSPQVLGVRIQNGRHPLMELCARTFVPNSTECGGDKGRVKVITGPNSSGKSIYLKQVGLITFMALVGSFVPAEEAEIGAVDAIFTRIHSCESISLGLSTFMIDLNQVAKAVNNATAQSLVLIDEFGKGTNTVDGLALLAAVLRHWLARGPTCPHIFVATNFLSLVQLQLLPQGPLVQYLTMETCEDGNDLVFFYQVCEGVAKASHASHTAAQAGLPDKLVARGKEVSDLIRSGKPIKPVKDLLKKNQMENCQTLVDKFMKLDLEDPNLDLNVFMSQEVLPAATSIL
modifications: left off: a dimerising Fc or GST; large carriers; small tags and cut ends
